Laboratory results: PMC9569306

Legend:
[1] = biological target: [FeFe]-hydrogenase HydA2 from Chlamydomonas reinhardtii (C. reinhardtii)
[2] = biological target: ferredoxin-NADP+ oxidoreductase (FNR) from Chlamydomonas reinhardtii (C. reinhardtii) (UniProt P53991)
[3] = biological target: [FeFe]-hydrogenase HydA1 from Chlamydomonas reinhardtii (C. reinhardtii)
[4] = biological target: [FeFe]-hydrogenase HydA1 from Chlamydomonas reinhardtii (C. reinhardtii); remark: listed apart in the source
[5] = biological target: ferredoxin-NADP+ oxidoreductase (FNR) from Chlamydomonas reinhardtii (C. reinhardtii) (UniProt P53991); remark: listed apart in the source

Sequence of UniProt P53991 (P53991 36-354): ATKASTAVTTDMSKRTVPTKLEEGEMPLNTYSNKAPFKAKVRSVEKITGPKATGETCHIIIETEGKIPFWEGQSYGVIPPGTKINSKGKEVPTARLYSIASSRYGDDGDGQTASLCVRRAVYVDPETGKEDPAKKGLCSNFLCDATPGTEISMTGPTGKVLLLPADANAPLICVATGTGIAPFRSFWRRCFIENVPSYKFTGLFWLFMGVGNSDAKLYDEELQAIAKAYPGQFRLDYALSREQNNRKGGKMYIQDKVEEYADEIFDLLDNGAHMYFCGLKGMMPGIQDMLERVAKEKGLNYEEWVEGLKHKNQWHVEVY

ferredoxin Fdx2 from Chlamydomonas reinhardtii (natural protein)
H2 production rate of HydA2, 50 µM ferredoxin reduced with 10 mM sodium dithionite (µmol H2 × min^−1 × mg^−1) [1]: 12.6
NADPH-dependent cytochrome c reduction, 40 nM FNR, 5 µM ferredoxin, initial reaction speed (µM cyt c × min^−1) [2]: 121
H2 production rate of HydA1, 50 µM ferredoxin reduced with 10 mM sodium dithionite, against PetF (% of the rate with PetF) [3]: 40

ferredoxin Fdx3 from Chlamydomonas reinhardtii (natural protein)
H2 production rate of HydA2, 50 µM ferredoxin reduced with 10 mM sodium dithionite, against PetF (% of the rate with PetF) [1]: 10
light-dependent H2 production of HydA1 (50 nM, 10 µM ferredoxin) left in the presence of the competitor FNR (50 nM), against the rate without FNR [4]: 29%

ferredoxin Fdx7 from Chlamydomonas reinhardtii (natural protein)
H2 production rate of HydA1, 50 µM ferredoxin reduced with 10 mM sodium dithionite, against PetF (% of the rate with PetF) [3]: 14
light-dependent H2 production of HydA1 (50 nM, 10 µM ferredoxin) left in the presence of the competitor FNR (50 nM), against the rate without FNR [4]: 59%

ferredoxin Fdx8 from Chlamydomonas reinhardtii (natural protein)
light-dependent H2 production of HydA1 (50 nM, 10 µM ferredoxin) left in the presence of the competitor FNR (50 nM), against the rate without FNR [4]: 52%

ferredoxin Fdx10 from Chlamydomonas reinhardtii (natural protein)
NADPH-dependent cytochrome c reduction, 40 nM FNR, 5 µM ferredoxin (µM cyt c × min^−1) [5]: 23.3
light-dependent H2 production of HydA1 (50 nM, 10 µM ferredoxin) left in the presence of the competitor FNR (50 nM), against the rate without FNR [4]: 43%

ferredoxin Fdx11 from Chlamydomonas reinhardtii (natural protein)
NADPH-dependent cytochrome c reduction, 40 nM FNR, 5 µM ferredoxin (µM cyt c × min^−1) [5]: 34.4

photosynthetic ferredoxin PetF from Chlamydomonas reinhardtii (from UniProt P07839 33-126) (natural protein)
H2 production rate of HydA2, 50 µM ferredoxin reduced with 10 mM sodium dithionite (µmol H2 × min^−1 × mg^−1) [1]: 63.9
NADPH-dependent cytochrome c reduction, 40 nM FNR, 5 µM ferredoxin, initial reaction speed (µM cyt c × min^−1) [2]: 84.2
H2 production rate of HydA1, 50 µM ferredoxin reduced with 10 mM sodium dithionite (µmol H2 × min^−1 × mg^−1) [3]: 225
